Source: publication doi:10.1101/2020.06.17.157404

What was measured:
[1] = target: RPL7:CFP (Medicago truncatula); assay: FRET or BRET
[2] = target: CFP:MtRH10 (Medicago truncatula); assay: FRET or BRET

With AeSSP1256:YFP (natural protein) the mean CFP lifetime of the donor with the acceptor (2.83 ns +/- 0.03 without) [1] was 2.46 ns and the mean CFP lifetime of the donor with the acceptor (2.86 ns +/- 0.02 without) [2] was 2.53 ns.
